The source of these data is patent US20130195871A1 (AbbVie / Abbott, published 2013).

The target in one assay is T1, Recombinant Human IGF1R (human, UniProt P08069 31-932).
T1 construct: bought reagent
The experiment in a line: SPR (Biacore), N-terminal VD.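 Further: capture of antibodies or DVD-Ig proteins on an anti-mouse IgG chip surface, recombinant antigen injected at 10–200 nM in HBS-EP running buffer at 25 °C.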 Background: SPR reads the build-up and loss of mass on a sensor chip optically.

The target in assay [1] is T2, Recombinant Human MSP Receptor ECD-His tag (human, UniProt Q04912 25-957).
T2 construct: extracellular domain; bought reagent; also called RON
The experiment in a line: SPR (Biacore).
Description: The BIACORE assay (Biacore, Inc, Piscataway, N.J.) determined the affinity of antibodies or DVD-Ig proteins with kinetic measurements of on-rate and off-rate constants. Binding of antibodies or DVD-Ig proteins to a target antigen (for example, a purified recombinant target antigen) was determined by surface plasmon resonance-based measurements with a Biacore® 1000 or 3000 instrument (Biacore AB, Uppsala. Sweden) using running HBS-EP (10 mM HEPES [pH 7.4], 150 mM NaCl, 3 mM EDTA, and 0.005% surfactant P20) at 25° C. […] For example, approximately 5000 RU of goat anti-mouse IgG, (Fcγ), fragment specific polyclonal antibody (Pierce Biotechnology Inc, Rockford, Ill.) diluted in 10 mM sodium acetate (pH 4.5) was directly immobilized across a CM5 research grade biosensor chip using a standard amine coupling kit according to manufacturer's instructions and procedures at 25 μg/ml. Unreacted moieties on the biosensor surface were blocked with ethanolamine. Modified carboxymethyl dextran surface in flowcell 2 and 4 was used as a reaction surface. Unmodified carboxymethyl dextran without goat anti-mouse IgG in flow cell 1 and 3 was used as the reference surface. For kinetic analysis, rate equations derived from the 1:1 Langmuir binding model were fitted simultaneously to association and dissociation phases of all eight injections (using global fit analysis) with the use of Biaevaluation 4.0.1 software. Purified antibodies or DVD-Ig proteins were diluted in HEPES-buffered saline for capture across goat anti-mouse IgG specific reaction surfaces. Antibodies or DVD-Ig proteins to be captured as a ligand (25 μg/ml) were injected over reaction matrices at a flow rate of 5 μl/minute. The association and dissociation rate constants, kₒₙ (M⁻¹s⁻¹) and koff (s⁻¹) were determined under a continuous flow rate of 25 μl/minute. Rate constants were derived by making kinetic binding measurements at different antigen concentrations ranging from 10-200 nM. The equilibrium dissociation constant (M) of the reaction between antibodies or DVD-Ig proteins and the target antigen was then calculated from the kinetic rate constants by the following formula: KD=koff/kₒₙ. Binding was recorded as a function of time and kinetic rate constants were calculated.

The target in assay [2] is T2, Recombinant Human MSP Receptor ECD-His …. The experiment in a line: SPR (Biacore), N-terminal VD.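 Further: capture of antibodies or DVD-Ig proteins on an anti-mouse IgG chip surface, recombinant antigen injected at 10–200 nM in HBS-EP running buffer at 25 °C.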
Assay [3] addresses T3, Recombinant Human ErbB3/FC Chimera-His tag (human, UniProt P21860 20-643).
T3 construct: bought reagent
The experiment in a line: SPR (Biacore), N-terminal VD.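 Further: capture of antibodies or DVD-Ig proteins on an anti-mouse IgG chip surface, recombinant antigen injected at 10–200 nM in HBS-EP running buffer at 25 °C.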

The Kd is the constant that tells how readily two partners part at equilibrium. As usually defined, the koff is a measure of how fast the partners let go of each other. For orientation: kon means a measure of how fast the partners come together.

B1: DVD2282 (bispecific antibody)
VH: EVQLVQSGAEVKKPGSSVKVSCKASGGTFSSYAISWVRQAPGQGLEWMGGIIPIFGTANYAQKFQGRVTITADKSTSTAYMELSSLRSEDTAVYYCARAPLRFLEWSTQDHYYYYYMDVWGKGTTVTVSSASTKGPQVQLQQWGAGLLKPSETLSLTCAVYGGSFSGYYWSWIRQPPGKGLEWIGEINHSGSTNYNPSLKSRVTISVETSKNQFSLKLSSVTAADTAVYYCARDKWTWYFDLWGRGTLVTVSS
VL: SSELTQDPAVSVALGQTVRITCQGDSLRSYYATWYQQKPGQAPILVIYGENKRPSGIPDRFSGSSSGNTASLTITGAQAEDEADYYCKSRDGSGQHLVFGGGTKLTVLGQPKAAPDIEMTQSPDSLAVSLGERATINCRSSQSVLYSSSNRNYLAWYQQNPGQPPKLLIYWASTRESGVPDRFSGSGSGTDFTLTISSLQAEDVAVYYCQQYYSTPRTFGQGTKVEIK
notes: DVD-Ig, outer AB075 / inner AB062
For the molecule B1, in the assay with Recombinant Human IGF1R, the Kd worked out at 5.2 nM, the off-rate (koff) was 0.00013 s⁻¹ and the kon was determined as 25000 M⁻¹ s⁻¹.

B2: DVD2209 (bispecific antibody)
VH: QVQLQESGPGLVKPSEILSLTCTVSGGSISSHYWSWVRQPPGKGLEWIGYIYYSGSTNYNPSLKSRVTISVDTSKNQFSLNLSSVTAADTAVYYCARIPNYYDRSGYYPGYWYFDLWGRGTLVTVSSASTKGPEVQLVQSGGGLVKPGGSLRLSCAASGFTFSSYAMHWVRQAPGKGLEWVAVISYDGSNKYYADSVKGRFTISRDNSKNTLYLQMNSLRAEDTAVYYCARFSGWPNNYYYYGMDVWGQGTTVTVSS
VL: QAVLTQPSSLSAPPGASASLTCTLRSGFNVDSYRISWYQQKPGSPPQYLLRYKSDSDKQQGSGVPSRFSGSKDASANAGILLISGLQSEDEADYYCMIWHSSAWVFGGGTKLTVLRTVAAPDVVMTQSPLSLPVTPGEPASISCRSSQSLLHSNGFNYVDWYLQKPGQSPHLLIYFGSYRASGVPDRFSGSGSGTDFTLKISRVEAEDVGVYYCMQALQTPPWTFGQGTKVEIR
notes: DVD-Ig, outer AB034 / inner AB005
With B2, the dissociation constant Kd in assay [1] amounted to 23 nM.

B3: DVD2316 (bispecific antibody)
VH: EVQLVQSGGGLVKPGGSLRLSCAASGFTFSSYAMHWVRQAPGKGLEWVAVISYDGSNKYYADSVKGRFTISRDNSKNTLYLQMNSLRAEDTAVYYCARFSGWPNNYYYYGMDVWGQGTTVTVSSASTKGPEVQLVESGGGLVQPGGSLRLSCAASGFTFTDYTMDWVRQAPGKGLEWVADVNPNSGGSIYNQRFKGRFTLSVDRSKNTLYLQMNSLRAEDTAVYYCARNLGPSFYFDYWGQGTLVTVSS
VL: DVVMTQSPLSLPVTPGEPASISCRSSQSLLHSNGFNYVDWYLQKPGQSPHLLIYFGSYRASGVPDRFSGSGSGTDFTLKISRVEAEDVGVYYCMQALQTPPWTFGQGTKVEIRRTVAAPDIQMTQSPSSLSASVGDRVTITCKASQDVSIGVAWYQQKPGKAPKLLIYSASYRYTGVPSRFSGSGSGTDFTLTISSLQPEDFATYYCQQYYIYPYTFGQGTKVEIK
notes: DVD-Ig, outer AB005 / inner AB080
B3: in assay [2], the Kd was determined as 19 nM, the koff amounted to 0.00089 s⁻¹ and the on-rate constant (kon) was 46000 M⁻¹ s⁻¹.

B4: DVD2281 (bispecific antibody)
VH: EVQLLESGGGLVQPGGSLRLSCAASGFTFSHYVMAWVRQAPGKGLEWVSSISSSGGWTLYADSVKGRFTISRDNSKNTLYLQMNSLRAEDTAVYYCTRGLKMATIFDYWGQGTLVTVSSASTKGPEVQLVQSGAEVKKPGSSVKVSCKASGGTFSSYAISWVRQAPGQGLEWMGGIIPIFGTANYAQKFQGRVTITADKSTSTAYMELSSLRSEDTAVYYCARAPLRFLEWSTQDHYYYYYMDVWGKGTTVTVSS
VL: QSALTQPASVSGSPGQSITISCTGTSSDVGSYNVVSWYQQHPGKAPKLIIYEVSQRPSGVSNRFSGSKSGNTASLTISGLQTEDEADYYCCSYAGSSIFVIFGGGTKVTVLGQPKAAPSSELTQDPAVSVALGQTVRITCQGDSLRSYYATWYQQKPGQAPILVIYGENKRPSGIPDRFSGSSSGNTASLTITGAQAEDEADYYCKSRDGSGQHLVFGGGTKLTVL
notes: DVD-Ig, outer AB116 / inner AB075
Turning to B4, in assay [3], the Kd came out at 6.1 nM, the koff stood at 0.00024 s⁻¹ and the kon is 40000 M⁻¹ s⁻¹.

B5: DVD2208 (bispecific antibody)
VH: EVQLVQSGGGLVKPGGSLRLSCAASGFTFSSYAMHWVRQAPGKGLEWVAVISYDGSNKYYADSVKGRFTISRDNSKNTLYLQMNSLRAEDTAVYYCARFSGWPNNYYYYGMDVWGQGTTVTVSSASTKGPQVQLQESGPGLVKPSEILSLTCTVSGGSISSHYWSWVRQPPGKGLEWIGYIYYSGSTNYNPSLKSRVTISVDTSKNQFSLNLSSVTAADTAVYYCARIPNYYDRSGYYPGYWYFDLWGRGTLVTVSS
VL: DVVMTQSPLSLPVTPGEPASISCRSSQSLLHSNGFNYVDWYLQKPGQSPHLLIYFGSYRASGVPDRFSGSGSGTDFTLKISRVEAEDVGVYYCMQALQTPPWTFGQGTKVEIRRTVAAPQAVLTQPSSLSAPPGASASLTCTLRSGFNVDSYRISWYQQKPGSPPQYLLRYKSDSDKQQGSGVPSRFSGSKDASANAGILLISGLQSEDEADYYCMIWHSSAWVFGGGTKLTVL
notes: DVD-Ig, outer AB005 / inner AB034
With B5, in assay [1], the Kd came to 16 nM, the koff was determined as 0.0013 s⁻¹ and the kon was 83000 M⁻¹ s⁻¹.

B6: DVD2210 (bispecific antibody)
VH: EVQLVQSGGGLVKPGGSLRLSCAASGFTFSSYAMHWVRQAPGKGLEWVAVISYDGSNKYYADSVKGRFTISRDNSKNTLYLQMNSLRAEDTAVYYCARFSGWPNNYYYYGMDVWGQGTTVTVSSASTKGPQVQLQESGPGLVKPSEILSLTCTVSGGSISSHYWSWVRQPPGKGLEWIGYIYYSGSTNYNPSLKSRVTISVDTSKNQFSLNLSSVTAADTAVYYCARIPNYYDRSGYYPGYWYFDLWGRGTLVTVSS
VL: DVVMTQSPLSLPVTPGEPASISCRSSQSLLHSNGFNYVDWYLQKPGQSPHLLIYFGSYRASGVPDRFSGSGSGTDFTLKISRVEAEDVGVYYCMQALQTPPWTFGQGTKVEIRRTVAAPSVFIFPPQAVLTQPSSLSAPPGASASLTCTLRSGFNVDSYRISWYQQKPGSPPQYLLRYKSDSDKQQGSGVPSRFSGSKDASANAGILLISGLQSEDEADYYCMIWHSSAWVFGGGTKLTVL
notes: as for B5
Consider B6, for which, in assay [1], the Kd amounted to 15 nM, the koff was determined as 0.0017 s⁻¹ and the kon turned out to be 110000 M⁻¹ s⁻¹.

B7: DVD2288 (bispecific antibody)
VH: EVQLVQSGAEVKKPGSSVKVSCKASGGTFSSYAISWVRQAPGQGLEWMGGIIPIFGTANYAQKFQGRVTITADKSTSTAYMELSSLRSEDTAVYYCARAPLRFLEWSTQDHYYYYYMDVWGKGTTVTVSSASTKGPEVQLVESGGGLVQPGGSLRLSCAASGFTFTDYTMDWVRQAPGKGLEWVADVNPNSGGSIYNQRFKGRFTLSVDRSKNTLYLQMNSLRAEDTAVYYCARNLGPSFYFDYWGQGTLVTVSS
VL: SSELTQDPAVSVALGQTVRITCQGDSLRSYYATWYQQKPGQAPILVIYGENKRPSGIPDRFSGSSSGNTASLTITGAQAEDEADYYCKSRDGSGQHLVFGGGTKLTVLGQPKAAPDIQMTQSPSSLSASVGDRVTITCKASQDVSIGVAWYQQKPGKAPKLLIYSASYRYTGVPSRFSGSGSGTDFTLTISSLQPEDFATYYCQQYYIYPYTFGQGTKVEIK
notes: DVD-Ig, outer AB075 / inner AB080
On to B7, for which, in the assay with Recombinant Human IGF1R, the Kd was found to be 12 nM, the koff was determined as 0.00026 s⁻¹ and the on-rate constant (kon) worked out at 22000 M⁻¹ s⁻¹.

B8: DVD2278 (bispecific antibody)
VH: EVQLVQSGAEVKKPGSSVKVSCKASGGTFSSYAISWVRQAPGQGLEWMGGIIPIFGTANYAQKFQGRVTITADKSTSTAYMELSSLRSEDTAVYYCARAPLRFLEWSTQDHYYYYYMDVWGKGTTVTVSSASTKGPEVQLVESGGGLVQPGGSLRLSCAASGFTFSIYSMNWVRQAPGKGLEWVSYISSSSSTIYYADSVKGRFTISRDNAKNSLYLQMNSLRDEDTAVYYCARDRGDFDAFDIWGQGTMVTVSS
VL: SSELTQDPAVSVALGQTVRITCQGDSLRSYYATWYQQKPGQAPILVIYGENKRPSGIPDRFSGSSSGNTASLTITGAQAEDEADYYCKSRDGSGQHLVFGGGTKLTVLGQPKAAPDIQMTQSPSSLSASVGDRVTITCQASQDITNYLNWYQQKPGKAPKLLIYDASNLETGVPSRFSGSGSGTDFTFTISSLQPEDIATYNCQQCENFPITFGQGTRLEIK
notes: DVD-Ig, outer AB075 / inner AB063
For the molecule B8, in the assay with Recombinant Human IGF1R, the Kd is 8.6 nM, the koff was found to be 0.00021 s⁻¹ and the kon came out at 25000 M⁻¹ s⁻¹.
